One protein from paper PMC4070737 (Cytoskeleton (Hoboken, N.J.), 2013) can be followed below.

This data set deals with the molecule itself. As to the kind of experiment: AUC.

B1: EB1_(248), activated fragment of human EB1 lacking the autoinhibitory tail domain (domain or fragment, UniProt Q15691 1-248, looked up)
chain: MAVNVYSTSVTSDNLSRHDMLAWINESLQLNLTKIEQLCSGAAYCQFMDMLFPGSIALKKVKFQAKLEHEYIQNFKILQAGFKRMGVDKIIPVDKLVKGKFQDNFEFVQWFKKFFDANYDGKDYDPVAARQGQETAVAPSLVAPALNKPKKPLTSSSAAPQRPISTQRTAAAPKAGPGVVRKNPGVGNGDDEAAELMQQVNVLKLTVEDLEKERDFYFGKLRNIELICQENEGENDPVLQRIVDILYA
Turning to B1, the “stoichiometry N” value was determined as 2.

A word on the stoichiometry N: it is a count of units in the complex or per binding partner.
